# Tested on: Escherichia coli TOP10
# Test: shrunken log2 fold change of peptide-encoding DNA abundance (4.5 h post-induction vs induction); higher = less antimicrobial activity (less host growth inhibition)
# Settings: time post-induction: 4.5 h; library: site-saturation at positions 5, 18, 19, 20
# 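Further: peptides expressed intracellularly from a pBAD plasmid library in pooled LB shake-flask culture, induced with 0.3% L-arabinose, DNA abundance read by NGS, three biological replicates, DESeq2 with apeglm shrinkage.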
row,Sequence,shrunken log2 fold change
1,RRIRQRPPRLPRPRPRPYCIPRP,-0.0416
2,RRIRVRPPRLPRPRPRPVMYPRP,-0.251
3,RRIRVRPPRLPRPRPRPYMEPRP,-0.16
4,RRIRKRPPRLPRPRPRPGFEPRP,0.32
5,RRIRCRPPRLPRPRPRPNAEPRP,0.118
6,RRIRNRPPRLPRPRPRPGMCPRP,-0.0316
7,RRIRGRPPRLPRPRPRPTVLPRP,0.564
8,RRIRPRPPRLPRPRPRPSGEPRP,0.126
9,RRIRARPPRLPRPRPRPPNGPRP,-0.00234
10,RRIRMRPPRLPRPRPRPSDEPRP,0.958
11,RRIRKRPPRLPRPRPRPLWDPRP,0.609
12,RRIRGRPPRLPRPRPRPGVPPRP,1
13,RRIRMRPPRLPRPRPRPTDFPRP,-0.0135
14,RRIRHRPPRLPRPRPRPRVCPRP,0.318
15,RRIRIRPPRLPRPRPRPKFNPRP,-1.09
16,RRIRHRPPRLPRPRPRPQKKPRP,-0.421
17,RRIRLRPPRLPRPRPRPLWWPRP,0.531
18,RRIRDRPPRLPRPRPRPNTMPRP,-0.167
19,RRIRIRPPRLPRPRPRPQREPRP,0.0374
20,RRIRLRPPRLPRPRPRPWASPRP,-0.0355
21,RRIRTRPPRLPRPRPRPVMTPRP,-0.14
22,RRIRMRPPRLPRPRPRPHRHPRP,-0.344

row,Sequence,shrunken log2 fold change
1,RRIRGRPPRLPRPRPRPPIMPRP,0.375
2,RRIRCRPPRLPRPRPRPGHPPRP,0.00689
3,RRIRIRPPRLPRPRPRPIMYPRP,-0.0494
4,RRIRFRPPRLPRPRPRPFVLPRP,-0.532
5,RRIRKRPPRLPRPRPRPLMQPRP,-0.134
6,RRIRRRPPRLPRPRPRPRGGPRP,0.509
7,RRIRIRPPRLPRPRPRPCPCPRP,-0.493
8,RRIRNRPPRLPRPRPRPYNIPRP,-0.13
9,RRIRVRPPRLPRPRPRPTPSPRP,0.253
10,RRIRHRPPRLPRPRPRPPCYPRP,-0.131
11,RRIRCRPPRLPRPRPRPESIPRP,-0.263
12,RRIRRRPPRLPRPRPRPLIQPRP,0.256
13,RRIRKRPPRLPRPRPRPRPCPRP,0.365
14,RRIRTRPPRLPRPRPRPPASPRP,1.72
15,RRIRTRPPRLPRPRPRPVQQPRP,0.0144
16,RRIRCRPPRLPRPRPRPITKPRP,-0.297
17,RRIRMRPPRLPRPRPRPGDGPRP,0.864
18,RRIRSRPPRLPRPRPRPMIEPRP,-0.0828
19,RRIRVRPPRLPRPRPRPNREPRP,-0.0873
20,RRIRARPPRLPRPRPRPFPIPRP,0.264
21,RRIRRRPPRLPRPRPRPYRVPRP,-0.0172
22,RRIRARPPRLPRPRPRPFRDPRP,-0.169

row,Sequence,shrunken log2 fold change
1,RRIRQRPPRLPRPRPRPDRDPRP,-0.242
2,RRIRLRPPRLPRPRPRPDCTPRP,0.0972
3,RRIRKRPPRLPRPRPRPAIYPRP,-0.109
4,RRIRARPPRLPRPRPRPAGSPRP,0.0823
5,RRIRMRPPRLPRPRPRPMSGPRP,0.858
6,RRIRVRPPRLPRPRPRPACHPRP,0.0396
7,RRIRYRPPRLPRPRPRPCAFPRP,-0.353
8,RRIRGRPPRLPRPRPRPSDAPRP,0.264
9,RRIRFRPPRLPRPRPRPMVCPRP,-0.0374
10,RRIRVRPPRLPRPRPRPQCNPRP,-0.449
11,RRIRFRPPRLPRPRPRPDMWPRP,-1.03
12,RRIRYRPPRLPRPRPRPMKAPRP,-0.000687
13,RRIRRRPPRLPRPRPRPFMCPRP,0.0373
14,RRIRNRPPRLPRPRPRPAYIPRP,-0.786
15,RRIRNRPPRLPRPRPRPAHDPRP,0.055
16,RRIRQRPPRLPRPRPRPFWIPRP,-0.0587
17,RRIRIRPPRLPRPRPRPTQLPRP,0.31
18,RRIRLRPPRLPRPRPRPSFIPRP,-0.578
19,RRIRRRPPRLPRPRPRPMNDPRP,0.338
20,RRIRFRPPRLPRPRPRPFDIPRP,-0.182
21,RRIRKRPPRLPRPRPRPLGMPRP,0.11
22,RRIRVRPPRLPRPRPRPCYHPRP,-0.00421

row,Sequence,shrunken log2 fold change
1,RRIRARPPRLPRPRPRPETVPRP,0.312
2,RRIRPRPPRLPRPRPRPQIRPRP,-0.207
3,RRIRNRPPRLPRPRPRPDSCPRP,-0.00192
4,RRIRVRPPRLPRPRPRPNAMPRP,-0.234
5,RRIRPRPPRLPRPRPRPKYLPRP,-0.0768
6,RRIRGRPPRLPRPRPRPNDGPRP,0.0995
7,RRIRTRPPRLPRPRPRPWTKPRP,-0.00433
8,RRIRPRPPRLPRPRPRPASHPRP,0.0473
9,RRIRSRPPRLPRPRPRPIAAPRP,0.333
10,RRIRMRPPRLPRPRPRPGTIPRP,0.228
11,RRIRRRPPRLPRPRPRPECKPRP,-0.0282
12,RRIRSRPPRLPRPRPRPWMNPRP,-0.267
13,RRIRDRPPRLPRPRPRPRFNPRP,0.858
14,RRIRRRPPRLPRPRPRPPVQPRP,0.366
15,RRIRTRPPRLPRPRPRPYFLPRP,-1.18
16,RRIRHRPPRLPRPRPRPTCMPRP,-0.184
17,RRIRVRPPRLPRPRPRPIRGPRP,0.0551
18,RRIRARPPRLPRPRPRPIQQPRP,0.0227
19,RRIRYRPPRLPRPRPRPVGHPRP,-0.076
20,RRIRERPPRLPRPRPRPCFWPRP,-0.176
21,RRIRWRPPRLPRPRPRPNCWPRP,0.533
22,RRIRMRPPRLPRPRPRPEPVPRP,1.01

row,Sequence,shrunken log2 fold change
1,RRIRTRPPRLPRPRPRPPARPRP,0.546
2,RRIRKRPPRLPRPRPRPIKGPRP,-0.141
3,RRIRWRPPRLPRPRPRPDMDPRP,0.0441
4,RRIRERPPRLPRPRPRPMSCPRP,-0.206
5,RRIRTRPPRLPRPRPRPATVPRP,0.0426
6,RRIRIRPPRLPRPRPRPFASPRP,-0.675
7,RRIRCRPPRLPRPRPRPTWCPRP,-0.0117
8,RRIRARPPRLPRPRPRPWHRPRP,0.00868
9,RRIRYRPPRLPRPRPRPWLGPRP,-0.0293
10,RRIRPRPPRLPRPRPRPNAKPRP,-0.0129
11,RRIRQRPPRLPRPRPRPETEPRP,0.0982
12,RRIRMRPPRLPRPRPRPSLSPRP,0.22
13,RRIRPRPPRLPRPRPRPCDQPRP,-0.758
14,RRIRFRPPRLPRPRPRPASYPRP,-0.218
15,RRIRGRPPRLPRPRPRPDISPRP,-0.0115
16,RRIRHRPPRLPRPRPRPSGQPRP,-0.17
17,RRIRTRPPRLPRPRPRPEGLPRP,0.0624
18,RRIRKRPPRLPRPRPRPPRMPRP,0.648
19,RRIRYRPPRLPRPRPRPWVYPRP,-0.234
20,RRIRWRPPRLPRPRPRPTMPPRP,0.256
21,RRIRARPPRLPRPRPRPVMRPRP,0.292

# From the supplement of paper PMC9112550, “Optimization of the antimicrobial peptide Bac7 by deep mutational scanning” (BMC Biology, 2022)
